Test results as given in the RNAGym collection of RNA variant scans (doi:10.7554/elife.80360).

B1: HDV Ribozyme (parent)
chain: GGCCGGCAUGGUCCCAGCCUCCUCGCUGGCGCCGGCUGGGCAACAUUCCGAGGGGACCGUCCCCUCGGUAAUGGCGAAUGGGACCCA

Variants of: B1
Assay: self-cleavage, relative activity (ratio to wild type); higher = more cleavage; co-transcriptional

Variant | self-cleavage
GGCCGGCAUUGACCCAGCCUCCUCGCUGGCGCCGGCUGGGCAACAUUCCGAGGGGACCGUCCCCUCGGUAAUGGCGAAUGGGACCCA [G10U U12A] | 0.0831
GGCCGGCAUUGGCCCAGCCUCCUCGCUGGCGCCGGCUGGGCAACAUUCCGAGGGGACCGUCCCCUCGGUAAUGGCGAAUGGGACCCA [G10U U12G] | 0.172
GGCCGGCAUUGUCCCAGCCUCCUCGCUGGCGCCGACUGGGCAACAUUCCGAGGGGACCGUCCCCUCGGUAAUGGCGAAUGGGACCCA [G10U G35A] | 0.604
GGCCGGCAUUGUCCCAGCCUCCUCGCUGGCGCCGUCUGGGCAACAUUCCGAGGGGACCGUCCCCUCGGUAAUGGCGAAUGGGACCCA [G10U G35U] | 0.337
GGCCGGCAUUGUCCCAGCCUCCUCGCUGGCGCCGCCUGGGCAACAUUCCGAGGGGACCGUCCCCUCGGUAAUGGCGAAUGGGACCCA [G10U G35C] | 0.0723
GGCCGGCAUUUUCCCAGCCUCCUCGCUGGCGCCGGCUGGGCAACAUUCCGAGGGGACCGUCCCCUCGGUAAUGGCGAAUGGGACCCA [G10U G11U] | 0.344
GGCCGGCAUUCUCCCAGCCUCCUCGCUGGCGCCGGCUGGGCAACAUUCCGAGGGGACCGUCCCCUCGGUAAUGGCGAAUGGGACCCA [G10U G11C] | 0.237
GGCCGGCAUUGUCCCAGCCUCCUCGCUGGCGCCGGCUCGGCAACAUUCCGAGGGGACCGUCCCCUCGGUAAUGGCGAAUGGGACCCA [G10U G38C] | 0.058
GGCCGGCAUUGUCCCAGCCUCCUCGCUGGCGCCGGCUAGGCAACAUUCCGAGGGGACCGUCCCCUCGGUAAUGGCGAAUGGGACCCA [G10U G38A] | 0.103
GGCCGGCAUUGUCCCAGCCUCCUCGCUGGCGCCGGCUGGGCAACAUUCCGAGGGGACCGUCCCGUCGGUAAUGGCGAAUGGGACCCA [G10U C64G] | 0.669
GGCCGGCAUUGUCCCAGCCUCCUCGCUGGCCCCGGCUGGGCAACAUUCCGAGGGGACCGUCCCCUCGGUAAUGGCGAAUGGGACCCA [G10U G31C] | 0.158
GGCCGGCAUUGUCCCAGCCUCCUCGCUGGCGCCGGCUGGGCAACAUUCCGAGGGGACCGUCCCCUCGGUAAUGACGAAUGGGACCCA [G10U G74A] | 0.107
GGCCGGCAUUGUCCCAGCCUCCUCGCUAGCGCCGGCUGGGCAACAUUCCGAGGGGACCGUCCCCUCGGUAAUGGCGAAUGGGACCCA [G10U G28A] | 0.0791
GGCCGGCAUUGUCCCAGCCUCCUCGCUGGCGCCGGCUGGGCAACAUUCCAAGGGGACCGUCCCCUCGGUAAUGGCGAAUGGGACCCA [G10U G50A] | 0.62
GGCCGGCAUUGUCCCAGCCUCCUCGCUGGCGCCGGCUGGGCAACAUUCCCAGGGGACCGUCCCCUCGGUAAUGGCGAAUGGGACCCA [G10U G50C] | 0.817
GGCCGGCAUUGUCCCAGCCUCCUCGCUGGCGCCGGCUGGGCAACAUUCCGAGGGGACCGUCCCCUGGGUAAUGGCGAAUGGGACCCA [G10U C66G] | 0.717

Variant | self-cleavage
GGCCGGCAUUGUCCCAGCCUCCUCGCUGGCGCCGGCUGGGCAACAUUCCGAGGGGACCGUCCCCUUGGUAAUGGCGAAUGGGACCCA [G10U C66U] | 0.728
GGCCGGCAUUGUCCCAGCCUCCUCGCUGGCGCCGGCUGGGCAACAUUCCGAGGGGACCGUCCCCUCGGUAAUGGCGAAUGGAACCCA [G10U G82A] | 0.241
GGCCGGCAUUGUCCCAACCUCCUCGCUGGCGCCGGCUGGGCAACAUUCCGAGGGGACCGUCCCCUCGGUAAUGGCGAAUGGGACCCA [G10U G17A] | 0.704
GGCCGGCAUUGUCCCAUCCUCCUCGCUGGCGCCGGCUGGGCAACAUUCCGAGGGGACCGUCCCCUCGGUAAUGGCGAAUGGGACCCA [G10U G17U] | 0.487
GGCCGGCAUUGUCCCAGCCUCCUCGCUGGCGCCGGCUGGGCAACAUUCCGAGGUGACCGUCCCCUCGGUAAUGGCGAAUGGGACCCA [G10U G54U] | 0.865
GGCCGGCAUUGUCCCAGCCUCCUCGCUGGCGCCAGCUGGGCAACAUUCCGAGGGGACCGUCCCCUCGGUAAUGGCGAAUGGGACCCA [G10U G34A] | 0.259
GGCCGGCAUUGUCCCAGCCACCUCGCUGGCGCCGGCUGGGCAACAUUCCGAGGGGACCGUCCCCUCGGUAAUGGCGAAUGGGACCCA [G10U U20A] | 0.0639
GGCCGGCAUUGUCCCAGCCUCCUCGCUGGCGCCGGCUGGGCAACAUUCCGAGGGGACCGUCCCCUCGGUAAUGGCGAAUAGGACCCA [G10U G80A] | 0.131
GGCCGGCAUUGUCCCAGCCUCCUCGCUGGCGCCGGCUGGGCAACAUUCCGAGGGGACCGUCCCCUCGGUAAUGGCGAAUCGGACCCA [G10U G80C] | 0.0936
GGCCGGCAUUGUCCCAGCCUCCUCGCUGGCGCCGGCUGGGCAACAUUCCGAGGGGACCGUCGCCUCGGUAAUGGCGAAUGGGACCCA [G10U C62G] | 0.641
GGCCGGCAUUGUCCCAGCCUCCUCGCUGGCGCCGGCUGGGCAACAUUCCGAGGGGACCGUCUCCUCGGUAAUGGCGAAUGGGACCCA [G10U C62U] | 0.722
GGCCGGCAUUGUCCCAGCCUCCUCGCUGGCGCCGGCUGGGCAACAUUCCGAGGGGACCGUCACCUCGGUAAUGGCGAAUGGGACCCA [G10U C62A] | 0.787
GGCCGGCAUUGUCCCAGCCUCCUCGCUGGCGCCGGCUGGGCAACAUUCCGAGGGGACCGUCCCCUCGGUAAUGGCGAAUGGGAUCCA [G10U C84U] | 0.409
GGCCGGCAUUGUCCCAGCCUCCUCGCUGGCGCCGGCUGGGCAACAUUCCGAGGGGACCGUCCCCUCUGUAAUGGCGAAUGGGACCCA [G10U G67U] | 0.819
GGCCGGCAUUGUCCCAGCCUCCUCGCUGGCGCCGGCUGGGCAACAUUCCGAGGGGACCGUCCCCUCCGUAAUGGCGAAUGGGACCCA [G10U G67C] | 0.572
GGCCGGCAUUGUCCCAGCCUCCUCGCUGGCGCCGGCUGGGCAACAUUCCGAGGGGACCGUCCCCUCAGUAAUGGCGAAUGGGACCCA [G10U G67A] | 0.611
